{
  "source": "patent US20260274958A1",
  "molecular_target": "VEGF-Fc (in house made by ImmuneOnco)",
  "sequence (chain, as listed by the source limits assumed)": "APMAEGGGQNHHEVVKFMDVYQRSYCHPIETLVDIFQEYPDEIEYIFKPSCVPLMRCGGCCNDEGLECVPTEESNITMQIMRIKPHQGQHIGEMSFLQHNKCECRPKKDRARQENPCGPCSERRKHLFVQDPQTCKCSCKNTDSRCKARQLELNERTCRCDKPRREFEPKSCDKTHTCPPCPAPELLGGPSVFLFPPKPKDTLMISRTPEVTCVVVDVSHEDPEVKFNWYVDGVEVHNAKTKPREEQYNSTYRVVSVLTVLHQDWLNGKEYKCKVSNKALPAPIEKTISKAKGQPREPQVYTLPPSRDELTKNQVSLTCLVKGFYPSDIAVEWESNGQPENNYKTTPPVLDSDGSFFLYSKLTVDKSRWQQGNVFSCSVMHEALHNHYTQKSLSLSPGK",
  "data": [
    {"substance": "VEGFR1D2-Fc (Fc fusion)", "values": [
      {"measurement": "IC50 of inhibition of VEGF-Fc induced CD69 expression (MFI) on Jurkat-CVR cells", "result": 2.38, "unit": "nM"}
    ]}
  ]
}
